The text below walks through data of patent US20230381350A1 (PRECIRIX N V, published 2023).

Assay [1] addresses T1, murine FAP recombinant protein (murine, UniProt P97321 26-761).
T1 construct: The protein was biotinylated for bio-layer interferometry; also called extracellular domain of murine FAP with N-terminal His6-tag
T1 sequence: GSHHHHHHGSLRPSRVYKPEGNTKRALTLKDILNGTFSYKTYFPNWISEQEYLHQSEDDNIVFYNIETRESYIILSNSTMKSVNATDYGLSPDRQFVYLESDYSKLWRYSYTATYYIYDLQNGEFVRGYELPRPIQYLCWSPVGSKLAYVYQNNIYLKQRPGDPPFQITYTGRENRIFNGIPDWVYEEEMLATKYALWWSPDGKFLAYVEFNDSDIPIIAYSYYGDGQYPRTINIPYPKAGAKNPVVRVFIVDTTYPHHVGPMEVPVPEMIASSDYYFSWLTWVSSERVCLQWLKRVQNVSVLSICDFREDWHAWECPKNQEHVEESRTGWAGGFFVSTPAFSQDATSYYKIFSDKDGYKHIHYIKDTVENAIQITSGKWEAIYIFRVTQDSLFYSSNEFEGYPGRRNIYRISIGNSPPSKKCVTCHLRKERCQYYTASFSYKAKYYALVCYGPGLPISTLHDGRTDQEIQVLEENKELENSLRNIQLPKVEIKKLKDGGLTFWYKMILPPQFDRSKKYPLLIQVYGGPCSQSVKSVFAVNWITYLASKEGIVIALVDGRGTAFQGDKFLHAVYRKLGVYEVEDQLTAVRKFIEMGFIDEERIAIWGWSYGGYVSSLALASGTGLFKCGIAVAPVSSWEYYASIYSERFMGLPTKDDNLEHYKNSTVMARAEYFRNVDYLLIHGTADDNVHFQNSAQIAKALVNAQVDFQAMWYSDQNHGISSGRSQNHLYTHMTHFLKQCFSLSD
As to the kind of experiment: bio-layer interferometry (Octet RED96), biotinylated murine FAP on streptavidin sensor. As for the experimental part: (§1) The kinetic parameters of antigen binding by purified VHHs were determined via bio-layer interferometry with an Octet RED96 instrument (ForteBio). The assay was performed at 25° C. with shaking at 1000 rpm. Streptavidin coated SA sensors were equilibrated in assay buffer (HBS supplemented with 0.5% BSA, 0.1% Tween), before loading for 5 min with the biotinylated FAP recombinant protein at a concentration of 5 μg/ml. His₆-tagged VHHs were analyzed in a threefold serial dilution from 30 nM to 0.4 nM in assay buffer (except for VHH B3 binding murine FAP recombinant protein, for which a fivefold serial dilution from 1000 nM to 1.6 nM was employed). First the baseline was measured for 180 s in assay buffer, followed by 5 subsequent association phases of 180 s with the VHH preparations in increasing order of concentration, with 75 s intermediate dissociation phases in assay buffer in between, and a final dissociation phase in assay buffer of 30 min. In every assay a reference sensor loaded with FAP recombinant protein was included that was incubated in assay buffer during the association phases.
Binding curves were exported and analyzed using the BIAevaluation analysis software (GE Healthcare). First the y-axes of the different curves were aligned to the median of the last 5 s of the baseline measurement. […]

In assay [2] the target is T2, human FAP recombinant protein (human, UniProt Q12884 26-760).
T2 construct: The protein was biotinylated with sulfo-NHS-SS-biotin for bio-layer interferometry; also called extracellular domain of human FAP with N-terminal His6-tag
T2 sequence: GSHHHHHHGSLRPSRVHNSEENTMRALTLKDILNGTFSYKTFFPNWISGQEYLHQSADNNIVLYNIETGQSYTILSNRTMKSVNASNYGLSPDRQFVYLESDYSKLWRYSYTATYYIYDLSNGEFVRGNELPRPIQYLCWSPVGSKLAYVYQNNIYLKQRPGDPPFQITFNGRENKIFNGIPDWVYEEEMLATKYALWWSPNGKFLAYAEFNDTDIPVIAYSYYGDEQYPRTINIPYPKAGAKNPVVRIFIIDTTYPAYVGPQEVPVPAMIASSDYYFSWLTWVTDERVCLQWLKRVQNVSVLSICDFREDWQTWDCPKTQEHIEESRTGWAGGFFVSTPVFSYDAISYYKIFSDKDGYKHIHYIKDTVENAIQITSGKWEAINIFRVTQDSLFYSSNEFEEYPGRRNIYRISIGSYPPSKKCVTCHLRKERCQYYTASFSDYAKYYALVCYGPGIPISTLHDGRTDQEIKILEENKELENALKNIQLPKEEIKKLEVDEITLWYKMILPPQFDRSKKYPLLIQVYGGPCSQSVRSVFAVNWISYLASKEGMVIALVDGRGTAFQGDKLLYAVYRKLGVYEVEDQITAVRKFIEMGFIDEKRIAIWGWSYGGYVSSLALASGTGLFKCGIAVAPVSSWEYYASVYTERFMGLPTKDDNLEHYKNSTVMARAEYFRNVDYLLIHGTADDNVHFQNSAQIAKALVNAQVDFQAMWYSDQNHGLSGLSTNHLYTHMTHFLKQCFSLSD
The assay is described as follows: bio-layer interferometry (Octet RED96), biotinylated human FAP on streptavidin sensor, kinetic titration, 25 °C. As for the experimental part: as §1
Binding curves were exported and analyzed using the BIAevaluation analysis software (GE Healthcare). First the y-axes of the different curves were aligned to the median of the last 5 s of the baseline measurement. Subsequently, the sensorgram of the reference sensor was subtracted from all other sensorgrams. The resulting binding curve was fitted using a general fit with the ‘kinetic titration with drift’ binding model (1:1 (antigen:analyte) model; Karlsson, R. et al (2006), Analyzing a kinetic titration series using affinity biosensors. Analytical Biochemistry 349: 136-147), with Rmax fitted global, RI local and drift set to 0.
Table 7 gives an overview of the kinetic parameters of antigen binding for His₆-tagged VHHs B1, B2, B3 and B4 (SEQ ID NO: 21-24), as determined by bio-layer interferometry with biotinylated human or murine FAP recombinant protein that was loaded on the sensor.

Assay [3] addresses T3, human FAP expressed on cells (human, UniProt Q12884 1-760).
T3 construct: also called human FAP cell surface protein; human FAP receptor
T3 sequence: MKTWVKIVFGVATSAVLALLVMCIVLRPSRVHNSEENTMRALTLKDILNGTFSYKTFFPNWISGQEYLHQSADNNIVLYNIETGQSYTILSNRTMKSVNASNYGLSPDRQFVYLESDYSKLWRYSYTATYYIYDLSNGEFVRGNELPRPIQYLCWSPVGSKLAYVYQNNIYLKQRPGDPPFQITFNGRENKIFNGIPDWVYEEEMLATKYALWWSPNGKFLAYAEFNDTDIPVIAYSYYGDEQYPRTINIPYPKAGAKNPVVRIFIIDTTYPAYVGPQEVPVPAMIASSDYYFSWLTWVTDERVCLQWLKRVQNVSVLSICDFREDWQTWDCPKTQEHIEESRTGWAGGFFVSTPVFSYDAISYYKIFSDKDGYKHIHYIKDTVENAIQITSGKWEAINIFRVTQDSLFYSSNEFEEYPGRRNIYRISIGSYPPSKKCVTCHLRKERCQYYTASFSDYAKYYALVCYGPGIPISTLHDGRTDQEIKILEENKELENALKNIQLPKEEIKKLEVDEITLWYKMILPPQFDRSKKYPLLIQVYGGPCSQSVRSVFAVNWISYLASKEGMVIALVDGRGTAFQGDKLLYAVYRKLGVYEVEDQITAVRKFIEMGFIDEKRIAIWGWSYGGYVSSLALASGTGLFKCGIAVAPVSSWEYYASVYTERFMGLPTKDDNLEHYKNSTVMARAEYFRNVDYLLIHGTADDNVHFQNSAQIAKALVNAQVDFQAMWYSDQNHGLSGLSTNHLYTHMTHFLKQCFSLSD
As to the kind of experiment: saturation binding of 111In-DOTA-labelled untagged VHH B1 on human FAP-expressing GM05389 cells. As for the experimental part:
Secondly, untagged human/murine FAP-crossreactive VHH B1 was radiolabeled with ¹¹¹In, after which its in vitro and in vivo diagnostic potential was evaluated. The binding potential of the resulting radio-conjugate was assessed to confirm that this was not affected by the conjugation of ¹¹¹In-DOTA to the amino acid sequence of the VHH. To this, human FAP-expressing GM05389 cells were incubated with serial dilutions with concentrations ranging from 0 to 33 nM of the ¹¹¹In-labelled VHHs. A 100-fold excess of the corresponding unlabeled VHH was added in parallel to saturate the human FAP receptors expressed on cancer cells, to assess non-specific binding.

For assay [4], the target named is T3, human FAP expressed on cells. The assay is described as follows: saturation binding of 225Ac-DOTA-labelled untagged VHH B1 on human FAP-expressing GM05389 cells.
Assay [5] has the same target. As to the kind of experiment: saturation binding of 177Lu-DTPA-labelled untagged VHH B1 on human FAP-expressing GM05389 cells. The protocol: (§2) In a first part, its in vitro behaviour was assessed by means of investigating its cellular binding and retention overtime. The binding potential of the resulting radioconjugates was assessed to confirm that this was not affected by the introduction of ¹⁷⁷Lu-DTPA into the amino acid sequence of the VHH. To this, human FAP-expressing GM05389 and HEK-293 cells were incubated with serial dilutions with concentrations ranging from 0 to 33 nM of ¹⁷⁷Lu-labeled untagged VHH B1. A 100-fold excess of the corresponding unlabeled VHH was added in parallel to saturate the human FAP receptors expressed on cancer cells, to assess non-specific binding.

Assay [6] has the same target. The assay is described as follows: saturation binding of 177Lu-DTPA-labelled untagged VHH B1 on human FAP-expressing HEK-293 cells. The protocol: as §2
Assay [7] has as its target T1, murine FAP recombinant protein. The assay is described as follows: ELISA, coated murine FAP recombinant protein, HA-His6-tagged VHH extract, anti-HA detection. As for the experimental part:
(§3) The day before measurement, 0.1 μg recombinant protein at a concentration of 1 μg/mL in 100 mM NaHCO₃, pH 8.2 was coated in a 96-well ELISA plate (Nunc MaxiSorp). Per VHH clone also a blank coated well was foreseen (only buffer). The wells were overcoated with protein-free T20 (PBS) blocking buffer (Pierce). After washing with PBS, pH7.4, 0.05% Tween, VHH-containing bacterial freeze-thaw extract was added to every well. Binding of HA-His₆-tagged VHHs was detected by using mouse anti-HA.11 epitope tag (clone 16B12, Biolegend) as the primary Ab and goat anti-mouse IgG (whole molecule) alkaline phosphatase conjugate (Sigma-Aldrich) as the secondary Ab, with thorough washing with PBS, pH 7.4, 0.05% Tween in between. Signals were developed using phosphatase substrate (Sigma-Aldrich) in AP blot buffer (100 mM NaCl, 50 mM MgCl₂, 100 mM Tris, pH 9.5). The absorbance was determined at 405 nm using an absorbance microplate reader (Molecular Devices). Per clone the ratio was determined between the absorbance in the antigen-coated well versus the well without antigen.

Assay [8] concerns the target T2, human FAP recombinant protein. As to the kind of experiment: ELISA on coated recombinant protein, VHH-containing bacterial extract, anti-HA detection, signal-to-background ratio. The protocol:
as §3

The target of assay [9] is T3, human FAP expressed on cells. The assay is described as follows: flow cytometry on human FAP-expressing GM05389 cells, VHH-containing bacterial extract, anti-HA and PE-conjugated secondary detection, Δmfi against cells without VHH. The protocol:
The cell binding was tested by flow cytometry experiments. Per test condition 1×10⁵ to 2×10⁵ cells, washed in PBS, 0.5% BSA, were pelleted in the well of a 96-well U-bottom plate. The cell pellets were resuspended and incubated with the VHH-containing bacterial freeze-thaw extracts (diluted in PBS, 0.5% BSA). Binding of HA-His₆-tagged VHHs was detected by using mouse anti-HA.11 epitope tag (clone 16B12, Biolegend) as the primary detection antibody and PE-conjugated rat anti-mouse IgG1 (clone A85-1, BD Pharmingen) as the secondary detection antibody, with washing with PBS, 0.5% BSA in between, and finally resuspended in PBS, 0.5% BSA.
Flow cytometry was performed on a FACS Canto II (BD Biosciences). Data were analyzed using FlowJo software. Based on the forward scatter-side scatter plot a single cell gate was drawn. The median fluorescence intensity was determined on a histogram for the phycoerythrin signal of the single cells. The difference in median fluorescence intensity (A mfi) was calculated relative to a test condition without incubation of VHHs (cells+primary Ab+secondary Ab), and are shown in FIG. 3.

B1: His6-tagged VHH B3 (VHH)
VHH: DVQLVESGGGLVQAGGSLRLSCAVSGRLFSTNAMGWYRQAPGKQRELVAGITGGDRSNYADSVKGRFTISRDNGKNTLYLQMNSLKPEDTAVYYCNFYPPIVGDYWGQGTQVTVSS
notes: Purified, unlabelled; used in bio-layer interferometry; also called B3 with His6-tag
For B1, the binding result in [1] is “no binding”. In [2], the equilibrium dissociation constant (Kd) was 0.16 nM, the dissociation rate constant (koff) amounted to 5.4e-05 s⁻¹ and the kon came to 340000 M⁻¹ s⁻¹.

B2: 111In-labeled untagged VHH B1 (VHH)
VHH: DVQLVESGGGLVQPGGSLRLSCVASGRLSSSNSMAWYRQVPGKRRELVAGITGGGETNYADFVGGRFTISRDNAKNGLYLQLNGLKPEDTAAYYCNFWPPLINYWGQGTQVTVSS
modifications: 111In-DOTA (p-SCN-Bn-DOTA) conjugated to lysine side-chain amines
In turn, B2 registered a half-maximal effective concentration (EC50) in [3] of 0.6 nM.

B3: 225Ac-labeled untagged VHH B1 (VHH)
VHH: DVQLVESGGGLVQPGGSLRLSCVASGRLSSSNSMAWYRQVPGKRRELVAGITGGGETNYADFVGGRFTISRDNAKNGLYLQLNGLKPEDTAAYYCNFWPPLINYWGQGTQVTVSS
modifications: 225Ac-DOTA (p-SCN-Bn-DOTA) conjugated to lysine side-chain amines
notes: also called 225Ac-DOTA-VHH
With B3, the EC50 in [4] is 0.4 nM.

B4: 177Lu-labeled untagged VHH B1 (VHH)
VHH: DVQLVESGGGLVQPGGSLRLSCVASGRLSSSNSMAWYRQVPGKRRELVAGITGGGETNYADFVGGRFTISRDNAKNGLYLQLNGLKPEDTAAYYCNFWPPLINYWGQGTQVTVSS
modifications: 177Lu-DTPA (p-SCN-Bn-CHX-A''-DTPA) conjugated to lysine side-chain amines
notes: also called 177Lu-B1; 177Lu-DTPA-VHH
Take B4: the EC50 in [5] was 0.5 nM; in [6] it was 0.8 nM.

B5: HA-His6-tagged VHH B4 (VHH)
VHH: QVQLQESGGGLVQVGGSLRLSCVASGFTFSSYYMSWVRQAPGKGLEWVASIYADGDMTYYADSVRGRFTISRDNAKNTLYLQMNSLKSEDTAVYYCAKDPLPPYHVNQGTQVTVSS
notes: also called B4 with HA-His6-tag
Consider B5, for which the signal-to-background ratio in assay [7] was above 30. Besides, the binding result in [8] and in assay [9] was “no binding” in each case.
